Results taken from the supplement of paper PMC10126150.
± gives the standard deviation of the averaged measurements.

System: ATP
Assay: switch fluorescence ratio, 500 uM ATP over buffer (Cy3 cluster intensity, sum of 5 cycles each) (fold (ratio)); higher = stronger signal-on switching upon ATP binding; sequences stand for … in TCGTCGGCAGCGTCAGATGTGTATAAGAGACAGTTTTTTTTTTTTTTTTTTTTTTTTT…TC
Conditions: aptamer strand: ATP DNA aptamer (quencher-CACCTGGGGGAGTATTGCGGAGGAAGG + anchor), 100 nM annealed; ATP concentration: 500 uM
Summary of the method: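 After annealing to 100 nM quencher-labelled ATP aptamer, Cy3-labelled switching-strand clusters on a modified Illumina MiSeq flow-cell were imaged in selection buffer. A second image followed after 15 min with 500 uM ATP at 22 °C, and five such buffer/ATP cycles were done, each separated by NaOH stripping and re-annealing. The fluorescence ratio, averaged per switch-domain sequence, is summed target-cycle over summed buffer-cycle Cy3 intensity per cluster, with clusters outside 100-1000 RFU excluded.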
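Also: ATP exposure 15 min at 22 °C before imaging.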

GTTTTCGGCG
switch fluorescence ratio: 0.981 ± 0.035

GTTTTGAACA
switch fluorescence ratio: 0.983 ± 0.034

GTTTTGATCA
switch fluorescence ratio: 1 ± 0.016

GTTTTGCATA
switch fluorescence ratio: 1.01 ± 0.028

GTTTTGCCTC
switch fluorescence ratio: 0.984 ± 0.01

GTTTTGCGAA
switch fluorescence ratio: 0.9957 ± 0.0086

GTTTTGGCTT
switch fluorescence ratio: 0.983 ± 0.021

GTTTTGGGTG
switch fluorescence ratio: 1.09 ± 0.058

GTTTTGGGTT
switch fluorescence ratio: 0.977 ± 0.017

GTTTTGGTAT
switch fluorescence ratio: 1.01 ± 0.0052

GTTTTGGTG
switch fluorescence ratio: 1.08 ± 0.12

GTTTTGGTGG
switch fluorescence ratio: 0.998 ± 0.029

GTTTTGGTTA
switch fluorescence ratio: 1.01 ± 0.014

GTTTTGTTGA
switch fluorescence ratio: 1.02 ± 0.021

GTTTTGTTTT
switch fluorescence ratio: 0.9758 ± 0.0063

GTTTTTAAGA
switch fluorescence ratio: 1.03 ± 0.022

GTTTTTAGAC
switch fluorescence ratio: 1.03 ± 0.014

GTTTTTAGT
switch fluorescence ratio: 1.006 ± 0.0027

GTTTTTCCTT
switch fluorescence ratio: 0.998 ± 0.022

GTTTTTCGGT
switch fluorescence ratio: 0.981 ± 0.026

GTTTTTG
switch fluorescence ratio: 0.984 ± 0.031

GTTTTTGAAA
switch fluorescence ratio: 0.982 ± 0.037

GTTTTTGGTG
switch fluorescence ratio: 1 ± 0.018

GTTTTTTAAT
switch fluorescence ratio: 1.015 ± 0.0061

GTTTTTTCTT
switch fluorescence ratio: 0.971 ± 0.051

GTTTTTTGAA
switch fluorescence ratio: 0.9764 ± 0.0021

GTTTTTTGCC
switch fluorescence ratio: 1 ± 0.034

GTTTTTTGTA
switch fluorescence ratio: 0.994 ± 0.022

GTTTTTTTTA
switch fluorescence ratio: 0.989 ± 0.037

TAAAAAACCT
switch fluorescence ratio: 1.57 ± 0.39

TAAAAAATAC
switch fluorescence ratio: 1.67 ± 0.74

TAAAAAGTGG
switch fluorescence ratio: 0.976 ± 0.038

TAAAAAGTTT
switch fluorescence ratio: 0.997 ± 0.03

TAAAAATGTT
switch fluorescence ratio: 0.988 ± 0.021

TAAAACCCGC
switch fluorescence ratio: 1.05 ± 0.032

TAAAACCGGT
switch fluorescence ratio: 1.02 ± 0.018

TAAAAGAAGA
switch fluorescence ratio: 0.962 ± 0.016

TAAAAGACCG
switch fluorescence ratio: 1.077 ± 0.007

TAAAAGACGG
switch fluorescence ratio: 1.08 ± 0.056

TAAAAGCCTT
switch fluorescence ratio: 1.06 ± 0.043

TAAAAGCTTT
switch fluorescence ratio: 1.02 ± 0.029

TAAAAGGACC
switch fluorescence ratio: 1.09 ± 0.023

TAAAAGGGAT
switch fluorescence ratio: 1.01 ± 0.023

TAAAAGGTTG
switch fluorescence ratio: 0.989 ± 0.033

TAAAAGGTTT
switch fluorescence ratio: 1 ± 0.032

TAAAAGTATA
switch fluorescence ratio: 0.985 ± 0.018

TAAAAGTTTT
switch fluorescence ratio: 1.01 ± 0.011

TAAAATAAAG
switch fluorescence ratio: 0.993 ± 0.033

TAAAATACTT
switch fluorescence ratio: 1.11 ± 0.16

TAAAATATTT
switch fluorescence ratio: 1.05 ± 0.069

TAAAATCAGT
switch fluorescence ratio: 0.992 ± 0.046

TAAAATGCGT
switch fluorescence ratio: 0.99954 ± 0.00034

TAAAATGTGA
switch fluorescence ratio: 0.963 ± 0.021

TAAAATTATA
switch fluorescence ratio: 1.02 ± 0.021

TAAAATTTAG
switch fluorescence ratio: 1 ± 0.04

TAAAATTTAT
switch fluorescence ratio: 0.994 ± 0.028

TAAAATTTGT
switch fluorescence ratio: 1.01 ± 0.05

TAAACCGCGG
switch fluorescence ratio: 1.01 ± 0.059

TAAACGGGGA
switch fluorescence ratio: 0.986 ± 0.057

TAAACGGTCA
switch fluorescence ratio: 1.07 ± 0.022

TAAAGAAAAG
switch fluorescence ratio: 0.988 ± 0.011

TAAAGAAGAG
switch fluorescence ratio: 0.977 ± 0.03

TAAAGAGTAG
switch fluorescence ratio: 1 ± 0.042

TAAAGATGAT
switch fluorescence ratio: 1.01 ± 0.012

TAAAGCCGGT
switch fluorescence ratio: 1.009 ± 0.0023

TAAAGCGCGG
switch fluorescence ratio: 1.074 ± 0.0037

TAAAGGAAAA
switch fluorescence ratio: 1.01 ± 0.015

TAAAGGACGG
switch fluorescence ratio: 1.01 ± 0.038

TAAAGGAGGT
switch fluorescence ratio: 1.01 ± 0.046

TAAAGGATCC
switch fluorescence ratio: 1.02 ± 0.041

TAAAGGATTC
switch fluorescence ratio: 0.979 ± 0.045

TAAAGGCGCG
switch fluorescence ratio: 0.985 ± 0.012

TAAAGGCGGT
switch fluorescence ratio: 0.983 ± 0.042

TAAAGGGAAA
switch fluorescence ratio: 1.26 ± 0.37

TAAAGGGAGT
switch fluorescence ratio: 1 ± 0.024

TAAAGGGATT
switch fluorescence ratio: 0.994 ± 0.032

TAAAGGGGCT
switch fluorescence ratio: 1.04 ± 0.049

TAAAGGGGGA
switch fluorescence ratio: 0.983 ± 0.039

TAAAGGGTAT
switch fluorescence ratio: 0.988 ± 0.032

TAAAGGTTAC
switch fluorescence ratio: 1.03 ± 0.028

TAAAGTGTGC
switch fluorescence ratio: 0.9727 ± 0.0042

TAAAGTGTGG
switch fluorescence ratio: 0.992 ± 0.027

TAAATAGCTT
switch fluorescence ratio: 1.08 ± 0.17

TAAATAGGGA
switch fluorescence ratio: 1.01 ± 0.03

TAAATATCGT
switch fluorescence ratio: 1 ± 0.013

TAAATATTGT
switch fluorescence ratio: 1.01 ± 0.016

TAAATATTTA
switch fluorescence ratio: 0.976 ± 0.05

TAAATCGGGA
switch fluorescence ratio: 0.9928 ± 0.0037

TAAATCGGGT
switch fluorescence ratio: 1 ± 0.013

TAAATGAAGG
switch fluorescence ratio: 1.04 ± 0.048

TAAATGCGCC
switch fluorescence ratio: 1.09 ± 0.022

TAAATGGAA
switch fluorescence ratio: 1 ± 0.024

TAAATGGGTT
switch fluorescence ratio: 1 ± 0.027

TAAATGGTTC
switch fluorescence ratio: 0.969 ± 0.027

TAAATGTGTA
switch fluorescence ratio: 1.01 ± 0.036

TAAATTAAGT
switch fluorescence ratio: 1.03 ± 0.029

TAAATTATGG
switch fluorescence ratio: 0.996 ± 0.021

TAAATTATTT
switch fluorescence ratio: 0.999 ± 0.023

TAAATTTAGG
switch fluorescence ratio: 0.989 ± 0.02

TAAATTTTGT
switch fluorescence ratio: 1.02 ± 0.039

TAACAATCGC
switch fluorescence ratio: 1.06 ± 0.038

TAACACCGGC
switch fluorescence ratio: 1.06 ± 0.025

TAACACGAAT
switch fluorescence ratio: 1.01 ± 0.0083

TAACACGGGA
switch fluorescence ratio: 1.037 ± 0.003

TAACATCTTT
switch fluorescence ratio: 1.03 ± 0.013

TAACATGAAG
switch fluorescence ratio: 1.004 ± 0.0073

TAACCCCGCT
switch fluorescence ratio: 1.42 ± 0.25

TAACCGGTGC
switch fluorescence ratio: 1.065 ± 0.01

TAACCTATCT
switch fluorescence ratio: 1.04 ± 0.033

TAACCTGGAG
switch fluorescence ratio: 1.18 ± 0.028

TAACCTTTAA
switch fluorescence ratio: 1.04 ± 0.02

TAACGATGGG
switch fluorescence ratio: 1.014 ± 0.01

TAACGCATCG
switch fluorescence ratio: 0.9887 ± 0.0012

TAACGGCGGT
switch fluorescence ratio: 0.978 ± 0.021

TAACGGGAAT
switch fluorescence ratio: 0.99 ± 0.02

TAACGGGGCG
switch fluorescence ratio: 1.01 ± 0.049

TAACGGGGGT
switch fluorescence ratio: 1.02 ± 0.062

TAACGGGGTA
switch fluorescence ratio: 1.01 ± 0.02

TAACGTTTTC
switch fluorescence ratio: 0.983 ± 0.06

TAACGTTTTT
switch fluorescence ratio: 1.1 ± 0.024

TAACTAATAA
switch fluorescence ratio: 1.01 ± 0.018

TAACTAATTT
switch fluorescence ratio: 1.03 ± 0.017

TAACTCTTTT
switch fluorescence ratio: 0.978 ± 0.044

TAACTGGCTT
switch fluorescence ratio: 1.01 ± 0.036

TAACTGTCTT
switch fluorescence ratio: 0.966 ± 0.013

TAAGAAAAAT
switch fluorescence ratio: 1.062 ± 0.0081

TAAGAAAGGG
switch fluorescence ratio: 0.9572 ± 0.0095

TAAGAAGTCG
switch fluorescence ratio: 0.9751 ± 0.0023

TAAGAGGA
switch fluorescence ratio: 0.991 ± 0.015

TAAGAGGCGG
switch fluorescence ratio: 1.01 ± 0.052

TAAGATAAAA
switch fluorescence ratio: 1.02 ± 0.017

TAAGATGATC
switch fluorescence ratio: 0.988 ± 0.048

TAAGATGTAA
switch fluorescence ratio: 1.03 ± 0.011

TAAGCAAATG
switch fluorescence ratio: 1.038 ± 0.0072

TAAGCAGGGC
switch fluorescence ratio: 1.068 ± 0.0043

TAAGCAGTTT
switch fluorescence ratio: 1.038 ± 0.0027

TAAGCGGGGT
switch fluorescence ratio: 1.012 ± 0.008

TAAGCGGTTG
switch fluorescence ratio: 0.989 ± 0.016

TAAGCTCGTG
switch fluorescence ratio: 0.97 ± 0.019

TAAGCTGGCT
switch fluorescence ratio: 1.025 ± 0.0092

TAAGCTGTGG
switch fluorescence ratio: 1.02 ± 0.028

TAAGGAGCGG
switch fluorescence ratio: 0.976 ± 0.013

TAAGGAGTTC
switch fluorescence ratio: 0.965 ± 0.021

TAAGGCGAGT
switch fluorescence ratio: 1.03 ± 0.052

TAAGGGAACC
switch fluorescence ratio: 1.01 ± 0.044

TAAGGGAATC
switch fluorescence ratio: 1.2 ± 0.31

TAAGGGAGTG
switch fluorescence ratio: 0.976 ± 0.031

TAAGGGCGCG
switch fluorescence ratio: 1.03 ± 0.035

TAAGGGCTGA
switch fluorescence ratio: 1.01 ± 0.011

TAAGGGGGAT
switch fluorescence ratio: 1.021 ± 0.0082

TAAGGGGGGC
switch fluorescence ratio: 0.98 ± 0.029

TAAGGGGTAT
switch fluorescence ratio: 0.985 ± 0.032

TAAGGGGTGG
switch fluorescence ratio: 0.969 ± 0.028

TAAGGGTGTG
switch fluorescence ratio: 1 ± 0.023

TAAGGGTTTC
switch fluorescence ratio: 1.02 ± 0.066

TAAGGTCATA
switch fluorescence ratio: 1.034 ± 0.0067

TAAGGTCCGA
switch fluorescence ratio: 1.021 ± 0.0077

TAAGGTCGGT
switch fluorescence ratio: 0.966 ± 0.018

TAAGGTGGCC
switch fluorescence ratio: 1.01 ± 0.013

TAAGGTGGCT
switch fluorescence ratio: 1.01 ± 0.043

TAAGGTGGGG
switch fluorescence ratio: 0.987 ± 0.021

TAAGGTGTGA
switch fluorescence ratio: 1.02 ± 0.038

TAAGGTTGGG
switch fluorescence ratio: 0.993 ± 0.021

TAAGGTTTGT
switch fluorescence ratio: 0.988 ± 0.021

TAAGTAGGGC
switch fluorescence ratio: 1.2 ± 0.18

TAAGTATGTC
switch fluorescence ratio: 0.995 ± 0.01

TAAGTCATGG
switch fluorescence ratio: 0.9922 ± 0.0078

TAAGTCATTG
switch fluorescence ratio: 0.985 ± 0.049

TAAGTCGGAA
switch fluorescence ratio: 0.996 ± 0.022

TAAGTGACCG
switch fluorescence ratio: 1.07 ± 0.018

TAAGTGGAC
switch fluorescence ratio: 1.039 ± 0.0089

TAAGTGGG
switch fluorescence ratio: 0.9621 ± 0.0055

TAAGTGTGTG
switch fluorescence ratio: 0.975 ± 0.021

TAAGTGTTTT
switch fluorescence ratio: 0.994 ± 0.023

TAAGTTAGGG
switch fluorescence ratio: 0.972 ± 0.029

TAAGTTCCTG
switch fluorescence ratio: 1 ± 0.026

TAAGTTCGCA
switch fluorescence ratio: 1.05 ± 0.024

TAAGTTGGGT
switch fluorescence ratio: 0.994 ± 0.042

TAAGTTTGTT
switch fluorescence ratio: 0.997 ± 0.011

TAAGTTTTTA
switch fluorescence ratio: 1.03 ± 0.023

TAATAAAGTT
switch fluorescence ratio: 1.02 ± 0.018

TAATAACATG
switch fluorescence ratio: 0.9691 ± 0.0038

TAATAAGGTG
switch fluorescence ratio: 1.13 ± 0.23

TAATAATGGG
switch fluorescence ratio: 1.02 ± 0.042

TAATAATTGT
switch fluorescence ratio: 1.018 ± 0.0078

TAATAGGGAT
switch fluorescence ratio: 0.98 ± 0.019

TAATAGGGCA
switch fluorescence ratio: 1.002 ± 0.007

TAATAGGGCG
switch fluorescence ratio: 1.01 ± 0.076

TAATATAAAC
switch fluorescence ratio: 1.002 ± 0.0078

TAATATGGTT
switch fluorescence ratio: 1.03 ± 0.055

TAATATTGGG
switch fluorescence ratio: 0.989 ± 0.029

TAATCAGGTA
switch fluorescence ratio: 1.1 ± 0.02

TAATCAGTGC
switch fluorescence ratio: 0.998 ± 0.068

TAATCATTGG
switch fluorescence ratio: 1.01 ± 0.065

TAATCCTGTA
switch fluorescence ratio: 0.9994 ± 0.003

TAATCGAGGG
switch fluorescence ratio: 0.9831 ± 0.0091

TAATCTGGCG
switch fluorescence ratio: 1.026 ± 0.0054

TAATCTTAGG
switch fluorescence ratio: 0.9838 ± 0.0079

TAATCTTTTT
switch fluorescence ratio: 1.01 ± 0.021

TAATGAAGCG
switch fluorescence ratio: 0.993 ± 0.018
